Measurements reported in the RNAGym collection of RNA variant scans (doi:10.1073/pnas.2313332121).

B1: TPR t1 (parent)
chain: GACCAAUCUGCCCUCAGAGCUCGAGAACAUCUUCGGAUGCAGAGGAGGCAGGCUUCGGUGGCGCGAUAGCGCCAACGUCCUCAACCUCCAAUGCAUCCCACCACAUGAUGAUGCCUGAAGAGCCUUGGUUUUUUG

Variants of: B1
Assay: polymerase ribozyme fitness, log enrichment relative to wild type (log ratio); higher = more active; in vitro selection for triplet polymerase activity
Summary of the method: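 Input and output libraries were sequenced on Illumina after a single in vitro selection round, run in triplicate on PCR-built, transcribed mutant libraries of each subunit of a heterodimeric triplet polymerase ribozyme. Selection annealed libraries to a biotinylated primer, the partner subunit and triplets, incubated them frozen at −7 °C, then gel-excised extended constructs for streptavidin-bead capture and RT-PCR. Genotypes with ≥10 input reads and ≥1 read per output were kept. Fitness is the logarithm, taken in base 2, of genotype enrichment divided by wild-type enrichment, using inverse-variance-weighted replicate averages.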

Compared with A46G C79A A91U A105U C124A U125A, G47C C123G U133A is higher in “polymerase ribozyme fitness (log ratio)” value: -6.73 for the first, -0.852 for the second.

Compared with A46U G48A G52C G61A G120A, G47C A111G is lower in “polymerase ribozyme fitness (log ratio)” value: -1.18 for the first, -2.34 for the second.

Going from G47A A50U C80A C88U A111G to A46U G77A A95G, the “polymerase ribozyme fitness (log ratio)” value rises from -4.88 to -1.31.

First: A46G C73A A108G
Second: A46U C73G G77A G127C
The “polymerase ribozyme fitness (log ratio)” value of the first is higher: -2.82 for the first, -3.61 for the second.

First: A46U A74U A119G
Second: G47C C94U
The “polymerase ribozyme fitness (log ratio)” value of the first is higher: 0.444 for the first, -1.71 for the second.

Going from A46C G77U A100C to A46U G71A C85G G122A, the “polymerase ribozyme fitness (log ratio)” value falls from -2.17 to -5.93.

First: A46G C56U G110U U116A
Second: G47A C53U A95G
The “polymerase ribozyme fitness (log ratio)” value of the first is higher: -2.84 for the first, -3.19 for the second.

First: A46G A83G
Second: G47C G63U A90U
The “polymerase ribozyme fitness (log ratio)” value of the first is higher: -0.884 for the first, -5.15 for the second.

First: G47A C53G C73U C86U
Second: G47C G63U
The “polymerase ribozyme fitness (log ratio)” value of the first is higher: -0.0372 for the first, -3.66 for the second.

Compared with G47A C64U, A46U C80U A103U A121U G135A is lower in “polymerase ribozyme fitness (log ratio)” value: -2.13 for the first, -5.5 for the second.

Going from G47C C86A to A46G G47U, the “polymerase ribozyme fitness (log ratio)” value falls from -0.437 to -1.31.

Compared with A46U C49A, A46U C49G is lower in “polymerase ribozyme fitness (log ratio)” value: -0.332 for the first, -1.75 for the second.

Compared with A46G G48A C64A, A46U G71A C73A A91G is higher in “polymerase ribozyme fitness (log ratio)” value: -6.8 for the first, -5.51 for the second.

Going from G47A U59C C79G G120A G128A G135U to A46U C53U A91U G113U U130A, the “polymerase ribozyme fitness (log ratio)” value rises from -5.95 to -4.7.

Going from G47A C89A to G47C G63U C102A U112C G113U, the “polymerase ribozyme fitness (log ratio)” value falls from -4.43 to -7.27.

First: A46G G58A A83C G107U A121C
Second: G47C A121G
The “polymerase ribozyme fitness (log ratio)” value of the first is lower: -4.18 for the first, 0.606 for the second.

Going from G47A G60A to G47A G60U, the “polymerase ribozyme fitness (log ratio)” value falls from 1.12 to -0.146.

Going from G47A G60C to G47A G113C G122A, the “polymerase ribozyme fitness (log ratio)” value falls from -1.05 to -4.01.

Going from G47C G120C G122A G128U to A46C U54A A66C U87G G113U, the “polymerase ribozyme fitness (log ratio)” value falls from -3.66 to -5.68.

Compared with A46C G120C, A46U C62A U133A is lower in “polymerase ribozyme fitness (log ratio)” value: 1.36 for the first, -2.52 for the second.

Going from G47C A90G G117C to A46G G48A, the “polymerase ribozyme fitness (log ratio)” value rises from -4.53 to -0.934.

Going from A46U G71A G93A G120A G122A to G47A A50G G113A, the “polymerase ribozyme fitness (log ratio)” value rises from -3.97 to -2.34.

Compared with A46U A84U A95U C102A, A46C U54A is higher in “polymerase ribozyme fitness (log ratio)” value: -4.22 for the first, -0.931 for the second.

Going from G47A C62U G113U to A46G G57A A83G U112C, the “polymerase ribozyme fitness (log ratio)” value rises from -4.52 to 0.022.

Going from A46U A50U G61U U125C to G47A C115A, the “polymerase ribozyme fitness (log ratio)” value rises from -4.52 to -1.2.

Going from G47A C62A G120A U126A to A46C U126G, the “polymerase ribozyme fitness (log ratio)” value rises from -3.07 to -2.07.

Compared with A46U C88U, G47A U78C G113U is lower in “polymerase ribozyme fitness (log ratio)” value: -1.61 for the first, -4.27 for the second.

Compared with G47C C80U, G47A C56U A105U is higher in “polymerase ribozyme fitness (log ratio)” value: -3.51 for the first, -2.73 for the second.

Going from A46C U92C U106G C115U U125G U132A to G47C A83U, the “polymerase ribozyme fitness (log ratio)” value rises from -6.92 to -1.11.

First: G47A A50U C53A U78G
Second: G47C G52C C73U G120U C123A
The “polymerase ribozyme fitness (log ratio)” value of the first is higher: -2.33 for the first, -2.99 for the second.

Compared with A46U U87A, G47A C49U G65U G69U C86U G127U is lower in “polymerase ribozyme fitness (log ratio)” value: -0.324 for the first, -4.94 for the second.

First: A46G C97U C114G
Second: G47A C62A C70A
The “polymerase ribozyme fitness (log ratio)” value of the first is lower: -4.73 for the first, -4.43 for the second.

Going from G47A G58A G60A C79U to A46U G48A G52C G61U G120A, the “polymerase ribozyme fitness (log ratio)” value rises from -2.31 to -0.93.

Going from A46U C53G to A46G C56A A84C C104A C115U A118U A119U, the “polymerase ribozyme fitness (log ratio)” value falls from -0.865 to -3.57.

First: A46G C56A C62G U130G U131C
Second: A46U C114A
The “polymerase ribozyme fitness (log ratio)” value of the first is lower: -4.26 for the first, -2.92 for the second.

Compared with G47A G110C, A46U C62U C86A A100U C104A G110C U134G is lower in “polymerase ribozyme fitness (log ratio)” value: -4.91 for the first, -5.64 for the second.

First: A46C G69C C85A
Second: G47C C73G U81A
The “polymerase ribozyme fitness (log ratio)” value of the first is lower: -3.49 for the first, -2.91 for the second.

Going from A46U G77A G127C to A46C G69A C72A, the “polymerase ribozyme fitness (log ratio)” value falls from -2.57 to -4.32.

Going from G47A G57U G69U G117A U133G to G47A C86A G113A, the “polymerase ribozyme fitness (log ratio)” value falls from -1.83 to -2.16.

Going from A46U C88U A103G to A46U C64U U109A C124A, the “polymerase ribozyme fitness (log ratio)” value rises from -7.61 to -5.73.

A46U A74C U92C and A46U C56U C101U are within 0.2 log units of each other in “polymerase ribozyme fitness (log ratio)” value: -1.48 for the first, -1.33 for the second.

With G47C C104U the “polymerase ribozyme fitness (log ratio)” value was -1.08.
